According to publication PMC9001736:

Columns and labels:
[1] = biological target: ZZ domain of HERC2 (HERC2ZZ, aa 2702–2755 with additional tryptophan at the C-terminus) (human) (UniProt O95714); test: other fluorescence titration; tryptophan fluorescence; 1 μM HERC2ZZ with increasing REEE peptide; 25 °C; 20 mM Tris (pH 6.8), 150 mM NaCl, 2 mM DTT; excitation 295 nm
[2] = biological target: ZZ domain of HERC2 (HERC2ZZ, aa 2702–2755 with additional tryptophan at the C-terminus) (human) (UniProt O95714); test: other fluorescence titration; tryptophan fluorescence; 1 μM HERC2ZZ with 1 μM HERC2DOC present, increasing REEE peptide; 25 °C; 20 mM Tris (pH 6.8), 150 mM NaCl, 2 mM DTT

ZZ domain of HERC2 (HERC2ZZ, aa 2702–2755 with additional tryptophan at the C-terminus) (human), sequence (O95714 other isoform, or with tags, fused parts or gaps): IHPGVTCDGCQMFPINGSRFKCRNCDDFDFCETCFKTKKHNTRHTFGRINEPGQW

REEE peptide (mimetic of the Nt-R cargo degradation signal)
Kd [1]: 1200 nM | Kd [2]: 1000 nM
